B1: HA-Wss1 (recombinant, wild type) (enzyme, S. cerevisiae, UniProt P38838 1-269, looked up)
chain: MKTEGIKSPSAKYHDMAGSQRIPHKNPHIQKVAVLQSKPNKEDALNLIKEIAHKVSYLMKENHFKVTNLVEFYPRDQRLLGMNVNHGSKIMLRLRCSTDEFQFLPMECIMGTMLHELTHNLFGPHDKKFYNKLDELIGRQWVIEQRGLYDTFLGNGQRLGGRANLRSNRYPMTGISTNTGIVRKRGKGVKLGSLHPEGISSIDRGNSPRELAAFAAERRYRDDRWCGETKNNKDQIISDNISSSLEVVILDDDDEVLPGDTLIEVIDLT
notes: Wss1, yeast metalloprotease (WLM family); Produced with the pRSET-B vector; also called WT; WT-Wss1; source: E. coli ArcticExpress (DE3), soluble, purified on anti-HA beads and eluted with HA peptide
B2: MBP-Wss1 (wild type) (enzyme, S. cerevisiae, UniProt P38838 1-269, looked up)
chain: B1 chain
notes: Wss1, yeast metalloprotease; Expressed with the pMAL-c2 vector; also called MBP-Wss1 WT; Wss1-beads (CNBr-crosslinked MBP-Wss1 beads); source: E. coli BL21pLysS (DE3), purified on amylose resin, eluted with maltose
B3: his6-Flag (HF)-Doa1 (natural protein, S. cerevisiae, UniProt P36037 1-715, looked up)
chain: MGYQLSATLKGHDQDVRDVVAVDDSKVASVSRDGTVRLWSKDDQWLGTVVYTGQGFLNSVCYDSEKELLLFGGKDTMINGVPLFATSGEDPLYTLIGHQGNVCSLSFQDGVVISGSWDKTAKVWKEGSLVYNLQAHNASVWDAKVVSFSENKFLTASADKTIKLWQNDKVIKTFSGIHNDVVRHLAVVDDGHFISCSNDGLIKLVDMHTGDVLRTYEGHESFVYCIKLLPNGDIVSCGEDRTVRIWSKENGSLKQVITLPAISIWSVDCMSNGDIIVGSSDNLVRIFSQEKSRWASEDEINELSTQVEKSTISSKTIEFDESKLSPYEILQSPGRKEGQIVVVKSPQGTIEAHQFSNSSWKKVGDVVGAGATGNDKKIEFEGKTYDYVFDVDIEDGKPPLKLPINVSDNPYTAADNFLARYELPMSYRDQVVQFILKNTNGISLDQPNDNASSSAVSPSKTSVMKVLPVKQYLIMENYNPDTIFNGIVKINSNEKTFDDEILAQIGGALHDIDESWELLLSFANTIRSNWEIKTPAYDIVRLIVKKLPYSSDIKDYIEEGLGNKNITLTMLTVRILVNCFNNENWGVKLLESNQVYKSIFETIDTEFSQASAKQSQNLAIAVSTLIFNYSALVTKGNSDLELLPIVADAINTKYGPLEEYQECEEAAYRLTVAYGNLATVEPTLRQFANSVTWLANIKRSYGNVPRFKDIFDDLS
notes: Doa1, Cdc48 cofactor
B4: GST-Cdc48 (full length) (enzyme, S. cerevisiae, UniProt P25694 1-835, looked up)
chain: MGEEHKPLLDASGVDPREEDKTATAILRRKKKDNMLLVDDAINDDNSVIAINSNTMDKLELFRGDTVLVKGKKRKDTVLIVLIDDELEDGACRINRVVRNNLRIRLGDLVTIHPCPDIKYATRISVLPIADTIEGITGNLFDVFLKPYFVEAYRPVRKGDHFVVRGGMRQVEFKVVDVEPEEYAVVAQDTIIHWEGEPINREDEENNMNEVGYDDIGGCRKQMAQIREMVELPLRHPQLFKAIGIKPPRGVLMYGPPGTGKTLMARAVANETGAFFFLINGPEVMSKMAGESESNLRKAFEEAEKNAPAIIFIDEIDSIAPKRDKTNGEVERRVVSQLLTLMDGMKARSNVVVIAATNRPNSIDPALRRFGRFDREVDIGIPDATGRLEVLRIHTKNMKLADDVDLEALAAETHGYVGADIASLCSEAAMQQIREKMDLIDLDEDEIDAEVLDSLGVTMDNFRFALGNSNPSALRETVVESVNVTWDDVGGLDEIKEELKETVEYPVLHPDQYTKFGLSPSKGVLFYGPPGTGKTLLAKAVATEVSANFISVKGPELLSMWYGESESNIRDIFDKARAAAPTVVFLDELDSIAKARGGSLGDAGGASDRVVNQLLTEMDGMNAKKNVFVIGATNRPDQIDPAILRPGRLDQLIYVPLPDENARLSILNAQLRKTPLEPGLELTAIAKATQGFSGADLLYIVQRAAKYAIKDSIEAHRQHEAEKEVKVEGEDVEMTDEGAKAEQEPEVDPVPYITKEHFAEAMKTAKRSVSDAELRRYEAYSQQMKASRGQFSNFNFNDAPLGTTATDNANSNNSAPSGAGAAFGSNAEEDDDLYS
notes: Cdc48, AAA ATPase; source: expressed in bacteria, purified

Legend:
Conditions in all cases: both partners purified
his6-Flag (HF)-Doa1 [1] = target: B3; test: pull-down; purified HA-Wss1 (full length or truncated) on anti-HA beads with purified His6-Cdc48, GST-Cdc48 or HF-Doa1 (full length or truncated); western blot
GST-Cdc48 (full length) = target: B4; test: pull-down; Cdc48 complexes preformed from purified GST-Cdc48 with a double molar excess of adaptors; MBP-Wss1 added in stoichiometric amount; glutathione beads; PAGE with Coomassie staining, ImageJ
his6-Flag (HF)-Doa1 [2] = target: B3; test: pull-down; purified MBP-Wss1 proteins on amylose beads with purified Cdc48 or adaptor proteins; PAGE with Coomassie staining, western blot with α-His6, ImageJ
MBP-Wss1 (wild type) = target: B2; test: as above

B1
binding result (his6-Flag (HF)-Doa1 [1]): binds

B2
stoichiometry N (GST-Cdc48 (full length)): 1 | binding result (his6-Flag (HF)-Doa1 [2]): binds

B3
stoichiometry N (GST-Cdc48 (full length)): 1

B4
stoichiometry N (MBP-Wss1 (wild type)): 1

Source: publication PMC4559962, “Wss1 metalloprotease partners with Cdc48/Doa1 in processing genotoxic SUMO conjugates” (eLife, 2015)
